Experimental data reported in US20070254831A1 (published 2007).
Numbered stars: 1 amine (or outer) side, 2 acyl side, 3 side chain; on linkers, the order of the positions; unused ones are H or OH. Bridge positions count the residues as written; N and C are the ends. Square brackets hold non-standard residues; d marks the D form. Ends that are not written are not given here. X2 = (3R)‑3‑amino‑1‑carboxymethyl‑valerolactam, O=C1[C@H](N[*:1])CCCN1CC(=O)[*:2]; NMeL = CN[C@@H](CC(C)C)C(=O)O; Pen = CC(C)(S)[C@H](N)C(=O)O; NMeA = CN[C@@H](C)C(=O)O

B1: Peptide No. 144 (peptide)
peptide: RFXTGHFGPLYPCNGP
modifications: Pen at 3; D-Pro at 9; disulfide; C-terminal amide
B2: Peptide No. 99 (peptide)
peptide: RFXTGHFGGLYPC
modifications: Pen at 3; disulfide; C-terminal amide
B3: Peptide No. 211 (peptide)
peptide: FVTGHFG[dP]WYPA-NH2
modifications: N-terminus assumed
SMILES: CC(C)[C@H](NC(=O)[C@@H](N)Cc1ccccc1)C(=O)N[C@H](C(=O)NCC(=O)N[C@@H](Cc1c[nH]cn1)C(=O)N[C@@H](Cc1ccccc1)C(=O)NCC(=O)N1CCC[C@@H]1C(=O)N[C@@H](Cc1c[nH]c2ccccc12)C(=O)N[C@@H](Cc1ccc(O)cc1)C(=O)N1CCC[C@H]1C(=O)N[C@@H](C)C(N)=O)[C@@H](C)O
B4: Peptide No. 246 (peptide)
peptide: RFVTGHFG[dP]WYPA-NH2
modifications: N-terminus assumed
SMILES: CC(C)[C@H](NC(=O)[C@H](Cc1ccccc1)NC(=O)[C@@H](N)CCCNC(=N)N)C(=O)N[C@H](C(=O)NCC(=O)N[C@@H](Cc1c[nH]cn1)C(=O)N[C@@H](Cc1ccccc1)C(=O)NCC(=O)N1CCC[C@@H]1C(=O)N[C@@H](Cc1c[nH]c2ccccc12)C(=O)N[C@@H](Cc1ccc(O)cc1)C(=O)N1CCC[C@H]1C(=O)N[C@@H](C)C(N)=O)[C@@H](C)O
B5: Peptide No. 237 (peptide)
peptide: RFXTGHFGGWYPC
modifications: Pen at 3; disulfide; C-terminal amide
B6: Peptide No. 101 (peptide)
peptide: QRF[Pen]TGHFGGIYPCNGP-NH2
modifications: disulfide 4-14; N-terminus assumed
SMILES: CC[C@H](C)[C@@H]1NC(=O)CNC(=O)CNC(=O)[C@H](Cc2ccccc2)NC(=O)[C@H](Cc2c[nH]cn2)NC(=O)CNC(=O)[C@H]([C@@H](C)O)NC(=O)[C@@H](NC(=O)[C@H](Cc2ccccc2)NC(=O)[C@H](CCCNC(=N)N)NC(=O)[C@@H](N)CCC(N)=O)C(C)(C)SSC[C@@H](C(=O)N[C@@H](CC(N)=O)C(=O)NCC(=O)N2CCC[C@H]2C(N)=O)NC(=O)[C@@H]2CCCN2C(=O)[C@H](Cc2ccc(O)cc2)NC1=O
B7: Peptide No. 115 (peptide)
peptide: QRF[Pen]TGHFGGFYPCNGP-NH2
modifications: disulfide 4-14; N-terminus assumed
SMILES: C[C@@H](O)[C@@H]1NC(=O)[C@@H](NC(=O)[C@H](Cc2ccccc2)NC(=O)[C@H](CCCNC(=N)N)NC(=O)[C@@H](N)CCC(N)=O)C(C)(C)SSC[C@@H](C(=O)N[C@@H](CC(N)=O)C(=O)NCC(=O)N2CCC[C@H]2C(N)=O)NC(=O)[C@@H]2CCCN2C(=O)[C@H](Cc2ccc(O)cc2)NC(=O)[C@H](Cc2ccccc2)NC(=O)CNC(=O)CNC(=O)[C@H](Cc2ccccc2)NC(=O)[C@H](Cc2c[nH]cn2)NC(=O)CNC1=O
B8: Peptide No. 238 (peptide)
peptide: QRFXTGHFGGWYPCNGP
modifications: Pen at 4; Sar at 10; disulfide; C-terminal amide
B9: Peptide No. 182 (peptide)
peptide: RFVTGHFXLYPA
modifications: X at 8 = 3-amino-2-oxo-1-piperidine-acetic acid (drawing CHEM-US-00094); linear; C-terminal amide
B10: Peptide No. 178 (peptide)
peptide: RFXTGHFXLYPC
modifications: Pen at 3; X at 8 = 3-amino-2-oxo-1-piperidine-acetic acid (drawing CHEM-US-00080); disulfide; C-terminal amide
B11: Peptide No. 228 (peptide)
peptide: RF[Pen][NMeA]GHF[X2][NMeL]YPC-NH2
modifications: disulfide 3-12; N-terminus assumed
SMILES: CC(C)C[C@H]1C(=O)N[C@@H](Cc2ccc(O)cc2)C(=O)N2CCC[C@H]2C(=O)N[C@H](C(N)=O)CSSC(C)(C)[C@H](NC(=O)[C@H](Cc2ccccc2)NC(=O)[C@@H](N)CCCNC(=N)N)C(=O)N(C)[C@@H](C)C(=O)NCC(=O)N[C@@H](Cc2c[nH]cn2)C(=O)N[C@@H](Cc2ccccc2)C(=O)N[C@@H]2CCCN(CC(=O)N1C)C2=O
B12: Peptide No. 197 (peptide)
peptide: RFXTGHFXLYPC
modifications: Pen at 3; X at 8 = 5,5-bicyclic dipeptide mimic (drawing CHEM-US-00085); disulfide; C-terminal amide
B13: Peptide No. 179 (peptide)
peptide: RFXTGHFXLYPC
modifications: Pen at 3; X at 8 = 3-amino-2-oxo-1-piperidine-acetic acid (drawing CHEM-US-00081); disulfide; C-terminal amide
B14: Peptide No. 205 (peptide)
peptide: RFXTGHFXLYPC
modifications: Pen at 3; X at 8 = 3(S)-3-amino-2-oxo-1-azepine acetic acid; disulfide; C-terminal amide
B15: SEQ ID NO:19 (peptide)
peptide: CTGHFGGLYPC-NH2
modifications: disulfide 1-11 (inferred)
B16: SEQ ID NO:18 (peptide)
peptide: QRFCTGHFGGLYPC-NH2
modifications: disulfide 4-14 (inferred)
B17: SEQ ID NO:24 (peptide)
peptide: QRFCTGHFGGLYPCN-NH2
modifications: disulfide 4-14 (inferred)
B18: Peptide No. 288 (peptide)
peptide: RFXTGHFGGLYPCGG
modifications: Pen at 3; Sar at 9; NMeLeu at 10; intrachain disulfide; C-termini joined on a branching Lys
notes: C-terminally linked dimer
B19: Peptide No. 287 (peptide)
peptide: RFXTGHFGGLYPCG
modifications: Pen at 3; Sar at 9; NMeLeu at 10; intrachain disulfide; C-termini joined on a branching Lys
notes: C-terminally linked dimer
B20: Peptide No. 201 (peptide)
peptide: QRFXTGHFGGLYPCNGP
modifications: Pen at 4; intrachain disulfide; C-terminal amide; N-termini joined by ethylene glycol-bis(succinic acid) linker
notes: N-terminally linked dimer
B21: Peptide No. 279 (peptide)
peptide: RFXTGHFGGLYPC
modifications: Pen at 3; Sar at 9; NMeLeu at 10; intrachain disulfide; C-terminal amide; N-termini joined by Bis-dPEG6 diacid linker
notes: N-terminally linked dimer
B22: Peptide No. 280 (peptide)
peptide: RFXTGHFGGLYPC
modifications: not fully specified; Pen at 3; Sar at 9; NMeLeu at 10; intrachain disulfide; C-termini joined on the two amines of a branching Lys
notes: C-terminally linked dimer
B23: SEQ ID NO:17 (peptide)
peptide: CTGHFGGLYPCNGP-NH2
modifications: disulfide 1-11 (inferred)
B24: SEQ ID NO:22 (peptide)
peptide: FCTGHFGGLYPCNGP-NH2
modifications: disulfide 2-12 (inferred)
B25: SEQ ID NO:20 (peptide)
peptide: TGHFGGLYP-NH2
B26: Peptide No. 107 (peptide)
peptide: QRFDTGHFGGLYKNGP-NH2
modifications: lactam 4-13; N-terminus assumed
SMILES: CC(C)C[C@@H]1NC(=O)CNC(=O)CNC(=O)[C@H](Cc2ccccc2)NC(=O)[C@H](Cc2c[nH]cn2)NC(=O)CNC(=O)[C@H]([C@@H](C)O)NC(=O)[C@@H](NC(=O)[C@H](Cc2ccccc2)NC(=O)[C@H](CCCNC(=N)N)NC(=O)[C@@H](N)CCC(N)=O)CC(=O)NCCCC[C@@H](C(=O)N[C@@H](CC(N)=O)C(=O)NCC(=O)N2CCC[C@H]2C(N)=O)NC(=O)[C@H](Cc2ccc(O)cc2)NC1=O
B27: Peptide No. 127 (peptide)
peptide: QRFDTGHFGGLYPKN-NH2
modifications: lactam 4-14; N-terminus assumed
SMILES: CC(C)C[C@@H]1NC(=O)CNC(=O)CNC(=O)[C@H](Cc2ccccc2)NC(=O)[C@H](Cc2c[nH]cn2)NC(=O)CNC(=O)[C@H]([C@@H](C)O)NC(=O)[C@@H](NC(=O)[C@H](Cc2ccccc2)NC(=O)[C@H](CCCNC(=N)N)NC(=O)[C@@H](N)CCC(N)=O)CC(=O)NCCCC[C@@H](C(=O)N[C@@H](CC(N)=O)C(N)=O)NC(=O)[C@@H]2CCCN2C(=O)[C@H](Cc2ccc(O)cc2)NC1=O
B28: Peptide No. 131 (peptide)
peptide: QRFXTGHFGGLYPENGP
modifications: Orn at 4; side-chain lactam bridge Orn 4-Glu 14; C-terminal amide

target: T1, soluble human FcRn (human, UniProt P55899 24-297; P61769 21-119, biotinylated (Sulfo-NHS-LC-Biotin) in the ELISA; amine-coupled to CM5 chip in SPR); test: ELISA, competitor human IgG
T1 construct: also called shFcRn; biotinylated shFcRn
Description: (§1) The wells were coated with 100 μl/well of 1 μg/ml biotinylated-shFcRn in Buffer A. The plate was sealed and incubated at 37° C. for 2 hours. Afterwards, the plate washed with 200 μl/well of Buffer B (Buffer B: 100 mM MES pH 6, 150 mM NaCl, 0.5% BSA IgG-free (Jackson ImmunoResearch, West Grove, Pa.), 0.05% Tween-20). […] To allow for mixing, the plate was rocked for 2 minutes, sealed and incubated at 37° C. for 2 hours. […] The plate was covered, incubated for 30 minutes at room temperature and washed 4 times with 200 μl/well of ice-cold buffer B. SureBlue TMB substrate solution (100 μl/well, KPL, Gaithersburg, Md.) was added and the plate was allowed to incubate at room temperature until color developed, which took 5 to 10 minutes. Once color developed, 100 μl/well of TMB stop solution (KPL, Gaithersburg, Md.) was added and the absorbance was measured at 450 nm. The data was plotted as absorbance vs. peptide concentration to derive the inhibitory concentration 50% (IC₅₀) values.

| IC50 | Binder |
| --- | --- |
| 1.5 µM | B1 |
| 2 µM | B2 |

target: T1, soluble human FcRn; test: SPR, pH 6
Description: (§2) The following steps were performed to cross-link soluble human or cynomolgus FcRn to the dextran surface of a CM5 sensor chip (Biacore AB, Uppsala, Sweden) by an amine coupling reaction involving 1-ethyl-(3-dimethylaminopropyl)-carbodiimide hydrochloride (EDC) (Biacore AB, Uppsala, Sweden) and N-hydroxysuccinimide (NHS) (Biacore AB, Uppsala, Sweden) as recommended by Biacore (BIAapplications Handbook, version AB, section 4.2, Biacore AB, Uppsala, Sweden). […] Residual sites on the FcRn flow cell were blocked with 1 M ethanolamine hydrochloride pH 8.5 (Biacore AB, Uppsala, Sweden). A control flow cell was blocked with ethanolamine for reference subtraction. For analysis of the monomeric peptides, FcRn was coated to a final density of 4000-5000 response units (RU). For analysis of the peptide dimers, FcRn was coated to a density of 2000-2500 RU. All SPR measurements were performed using a BIACORE 3000 Instrument (Biacore AB Uppsala, Sweden). For measurements done at either pH 6 or pH 7.4, experiments were performed in 50 mM phosphate, 100 mM sodium chloride, 0.01% surfactant P20 (Biacore AB, Uppsala, Sweden).
(§3) Ten, 2-fold dilutions of the peptide were injected over the FcRn-CM5 chip at a rate of 20 μl/min for 2 min. The peptide was dissociated from the chip for 2.5 minutes with buffer. Any remaining peptide was removed from the chip with a 30 second injection of HBS-P buffer (Biacore AB, Uppsala, Sweden) at a rate of 30 μl/min. Sensorgrams were generated and analyzed using BiaEval software version 3.1 (Biacore AB, Uppsala, Sweden). The equilibrium RU observed for each injection was plotted against concentration. The equilibrium KD values were derived by analysis of the plots using the steady state affinity model included in the BiaEval software.

| Kd | Binder |
| --- | --- |
| 8 µM | B3 |
| 3.6 µM | B4 |

target: T1, soluble human FcRn; test: ELISA, competitor human IgG; remark: another data set of the same source
Description: as §1

| IC50 | Binder |
| --- | --- |
| 2.8 µM | B5 |
| 3.4 µM | B6 |
| 4.1 µM | B7 |
| 1 µM | B8 |

target: T1, soluble human FcRn; test: ELISA, competitor human IgG; remark: another data set of the same source
Description: as §1

| IC50 | Binder |
| --- | --- |
| 38 µM | B9 |

target: T1, soluble human FcRn; test: SPR, pH 6; remark: another data set of the same source
Description: as §2, §3

| Kd | Binder |
| --- | --- |
| 0.16 µM | B10 |
| 0.145 µM | B11 |
| 0.99 µM | B12 |
| 0.67 µM | B13 |
| 0.103 µM | B14 |

target: T1, soluble human FcRn; test: SPR, pH 7.4
Description: as §2, §3

| Kd | Binder |
| --- | --- |
| 320 µM | B15 |
| 26 µM | B16 |
| 73 µM | B17 |

target: T1, soluble human FcRn; test: ELISA, competitor human IgG; remark: another data set of the same source
Description: as §1

| IC50 | Binder |
| --- | --- |
| 0.016 µM | B18 |
| 0.02 µM | B19 |
| 0.026 µM | B20 |
| 0.007 µM | B21 |
| 0.025 µM | B22 |

target: T1, soluble human FcRn; test: ELISA, competitor human IgG; remark: another data set of the same source
Description: as §1

| IC50 | Binder |
| --- | --- |
| 100 µM | B3 |
| 60 µM | B4 |

target: T1, soluble human FcRn; test: SPR, pH 6; remark: another data set of the same source
Description: as §2, §3

| Kd | Binder |
| --- | --- |
| 20 µM | B15 |
| 34 µM | B23 |
| 11 µM | B24 |
| 6.1 µM | B17 |

target: T1, soluble human FcRn; test: ELISA, competitor human IgG; remark: another data set of the same source
Description: as §1

| IC50 | Binder |
| --- | --- |
| 110 µM | B15 |
| 239 µM | B23 |
| 67 µM | B24 |
| > 250 µM | B25 |

target: T1, soluble human FcRn; test: ELISA, competitor human IgG; remark: another data set of the same source
Description: as §1

| IC50 | Binder |
| --- | --- |
| 0.66 µM | B10 |
| 1.1 µM | B11 |
| 2 µM | B2 |
| 7.2 µM | B13 |
| 0.64 µM | B14 |

target: T1, soluble human FcRn; test: ELISA, competitor human IgG; remark: another data set of the same source
Description: as §1

| IC50 | Binder |
| --- | --- |
| > 125 µM | B26 |
| 7.6 µM | B27 |
| 30 µM | B28 |

target: T1, soluble human FcRn; test: SPR, pH 6; remark: another data set of the same source
Description: as §2, §3

| Kd | Binder |
| --- | --- |
| 0.14 µM | B5 |
| 0.34 µM | B6 |
| 0.4 µM | B7 |
